Patent US6051396

Legend:
[1] = molecular target: T1, trpE-RB19-27 fusion (Homo sapiens) (UniProt P06400); conditions: Southwestern blot; 20-fold higher affinity than either subregion; 50 mM NaCl, pH 7.0, room temperature
T1 sequence: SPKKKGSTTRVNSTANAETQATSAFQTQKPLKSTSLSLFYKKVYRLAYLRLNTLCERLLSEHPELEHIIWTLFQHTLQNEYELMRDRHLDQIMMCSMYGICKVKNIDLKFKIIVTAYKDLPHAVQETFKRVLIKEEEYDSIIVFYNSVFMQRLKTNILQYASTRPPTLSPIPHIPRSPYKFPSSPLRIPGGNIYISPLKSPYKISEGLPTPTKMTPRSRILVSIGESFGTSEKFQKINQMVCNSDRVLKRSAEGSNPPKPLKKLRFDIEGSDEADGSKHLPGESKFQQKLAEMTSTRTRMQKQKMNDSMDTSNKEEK

[2] = molecular target: T2, trpE-RB19-22 fusion (Homo sapiens) (UniProt P06400); conditions: Southwestern blot; stated as RB19-27 having 20-fold higher affinity; 50 mM NaCl, pH 7.0, room temperature
T2 sequence: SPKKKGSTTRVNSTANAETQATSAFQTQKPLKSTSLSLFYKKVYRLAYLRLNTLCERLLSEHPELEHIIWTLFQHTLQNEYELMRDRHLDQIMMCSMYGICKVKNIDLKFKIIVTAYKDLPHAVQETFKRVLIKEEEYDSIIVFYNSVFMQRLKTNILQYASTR

[3] = molecular target: T3, trpE-RB23-27 fusion (Homo sapiens) (UniProt P06400); conditions: Southwestern blot; stated as RB19-27 having 20-fold higher affinity; 50 mM NaCl, pH 7.0, room temperature
T3 sequence: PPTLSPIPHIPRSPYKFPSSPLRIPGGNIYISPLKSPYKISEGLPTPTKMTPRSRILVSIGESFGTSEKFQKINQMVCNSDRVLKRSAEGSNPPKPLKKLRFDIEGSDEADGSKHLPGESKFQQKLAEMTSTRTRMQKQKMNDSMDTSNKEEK

pGEM1 plasmid DNA linearized by EcoRI, random-primed probe
binding signal (fold vs RB19-22 or RB23-27) [1]: 20 | binding signal (fraction of RB19-27) [2]: 0.05 | binding signal (fraction of RB19-27) [3]: 0.05
